Where two headings read alike, the source gives them in different places.
Assays:
[1] = biological target: T1, human CD22 (human, UniProt P20273 20-847); test: flow cytometry, Daudi cells, unconjugated Ab 3.3 µg/mL
T1 construct: Endogenous CD22 on human cell lines Daudi, Raji, Ramos, RL, REH and NALM-6; no signal peptide limits are stated; also called antigen CD22
Protocol: (§1) 6×10⁴˜1×10⁵ cells were seeded per well in a v-bottomed 96-well plate and incubated with 100 μl of the unconjugated Abs or the ADCs at titrated concentrations or isotype control antibody human IgG at 10 μg/mL. After 30-60 minutes of incubation at 4° C., cells were washed once with 200 μl FACS buffer (lx PBS containing 1% FBS), stained with 100 μl of 1 μg/ml goat F(ab′)2-anti-human IgG (H+L)-RPE (Southern Biotech, Cat. No. 2043-09) in FACS buffer and then incubated at 4° C. for 30˜60 min Cells were washed once with FACS buffer and analyzed by flow cytometer (BD LSR, BD Life Sciences).
(§2) The binding ability of hLL2-Cys variants with or without drug conjugation was evaluated in Daudi and REH cancer cells.

[2] = biological target: T1, human CD22; test: flow cytometry, REH cells, unconjugated Ab 3.3 µg/mL
Protocol: as §1
(§3) In general, the site-specific conjugated hLL2-IgG4p ADCs retained antigen reactivity of antibody.

[3] = biological target: T1, human CD22; test: flow cytometry, Daudi cells, unconjugated Ab 3.3 µg/mL; remark: listed apart in the source
Protocol: as §1, §3

[4] = biological target: T1, human CD22; test: cell-based or functional assay
[5] = biological target: T1, human CD22; test: flow cytometry, REH cells, Tap18Hr1 conjugate 3.3 µg/mL
Protocol: as §1, §3

[6] = biological target: T1, human CD22; test: flow cytometry, Daudi cells, Tap18Hr1 conjugate 3.3 µg/mL
Protocol: as §1, §3

[7] = biological target: T1, human CD22; test: cell-based or functional assay; remark: listed apart in the source
[8] = biological target: T1, human CD22; test: flow cytometry, Daudi cells, Tap18Hr1 conjugate 3.3 µg/mL; remark: listed apart in the source
Protocol: as §1, §2

B1: hLL2-S157C-IgG1 (antibody)
heavy: not shown
light: DIQLTQSPSSLSASVGDRVTMSCKSSQSVLYSANHKNYLAWYQQKPGKAPKLLIYWASTRESGVPSRFSGSGSGTDFTFTISSLQPEDIATYYCHQYLSSWTFGGGTKLEIKRTVAAPSVFIFPPSDEQLKSGTASVVCLLNNFYPREAKVQWKVDNALQSGNSQESVTEQDSKDSTYSLSSTLTLSKADYEKHKVYACEVTHQGLSSPVTKSFNRGEC
notes: Position is EU numbering
MFI [1]: 1300

B2: hLL2-IgG1 (antibody)
heavy: not shown
light: DIQLTQSPSSLSASVGDRVTMSCKSSQSVLYSANHKNYLAWYQQKPGKAPKLLIYWASTRESGVPSRFSGSGSGTDFTFTISSLQPEDIATYYCHQYLSSWTFGGGTKLEIKRTVAAPSVFIFPPSDEQLKSGTASVVCLLNNFYPREAKVQWKVDNALQSGNSQESVTEQDSKDSTYSLSSTLTLSKADYEKHKVYACEVTHQGLSSPVTKSFNRGEC
notes: also called hLL2-IgG1 Ab; hLL2-wild type antibody
MFI [2]: 139
MFI [1]: 1440
MFI [3]: 1390

B3: hLL2-IgG4p (antibody)
heavy: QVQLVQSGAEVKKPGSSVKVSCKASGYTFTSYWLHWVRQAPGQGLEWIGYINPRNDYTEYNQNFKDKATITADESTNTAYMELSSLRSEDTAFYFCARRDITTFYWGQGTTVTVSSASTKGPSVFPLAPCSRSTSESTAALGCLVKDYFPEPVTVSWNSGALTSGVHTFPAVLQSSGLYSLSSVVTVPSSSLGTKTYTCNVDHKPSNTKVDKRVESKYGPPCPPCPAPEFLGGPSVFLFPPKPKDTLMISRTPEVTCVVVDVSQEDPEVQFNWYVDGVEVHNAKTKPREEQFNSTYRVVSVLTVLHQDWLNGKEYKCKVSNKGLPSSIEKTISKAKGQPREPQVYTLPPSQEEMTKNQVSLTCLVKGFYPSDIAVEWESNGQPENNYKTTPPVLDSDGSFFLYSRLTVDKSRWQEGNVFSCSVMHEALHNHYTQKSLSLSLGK
light: DIQLTQSPSSLSASVGDRVTMSCKSSQSVLYSANHKNYLAWYQQKPGKAPKLLIYWASTRESGVPSRFSGSGSGTDFTFTISSLQPEDIATYYCHQYLSSWTFGGGTKLEIKRTVAAPSVFIFPPSDEQLKSGTASVVCLLNNFYPREAKVQWKVDNALQSGNSQESVTEQDSKDSTYSLSSTLTLSKADYEKHKVYACEVTHQGLSSPVTKSFNRGEC
notes: also called hLL2-IgG4p Ab
MFI [2]: 81
MFI [3]: 792

B4: hLL2-T155C-IgG4p-Tap18Hr1 (antibody, name in EU numbering)
heavy: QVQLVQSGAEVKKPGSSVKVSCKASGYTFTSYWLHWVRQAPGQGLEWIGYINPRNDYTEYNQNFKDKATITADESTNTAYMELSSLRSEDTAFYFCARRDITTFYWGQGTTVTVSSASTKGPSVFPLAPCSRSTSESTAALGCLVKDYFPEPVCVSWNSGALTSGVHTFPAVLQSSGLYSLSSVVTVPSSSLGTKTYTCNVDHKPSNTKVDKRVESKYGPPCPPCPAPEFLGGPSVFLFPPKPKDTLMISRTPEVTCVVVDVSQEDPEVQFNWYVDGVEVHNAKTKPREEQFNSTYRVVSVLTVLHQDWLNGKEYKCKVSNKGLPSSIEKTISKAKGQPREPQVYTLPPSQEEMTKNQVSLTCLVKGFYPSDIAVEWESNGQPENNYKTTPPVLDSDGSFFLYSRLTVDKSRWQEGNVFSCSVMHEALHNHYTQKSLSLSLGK
light: DIQLTQSPSSLSASVGDRVTMSCKSSQSVLYSANHKNYLAWYQQKPGKAPKLLIYWASTRESGVPSRFSGSGSGTDFTFTISSLQPEDIATYYCHQYLSSWTFGGGTKLEIKRTVAAPSVFIFPPSDEQLKSGTASVVCLLNNFYPREAKVQWKVDNALQSGNSQESVTEQDSKDSTYSLSSTLTLSKADYEKHKVYACEVTHQGLSSPVTKSFNRGEC
modifications: Tap18Hr1 linker-drug (monomethyl dolastatin 10) on the introduced Cys 155 (EU numbering); site-specific conjugation, DAR 1.58-2.01
notes: also called hLL2-T155C-IgG4p Tap18Hr1 conjugate
% inhibition, WST-1 cytotoxicity, Daudi cells, 1.1 µg/mL [4]: 66.2%
% inhibition, WST-1 cytotoxicity, Daudi cells, 3.3 µg/mL [4]: 70.2%
% inhibition, WST-1 cytotoxicity, NALM-6 cells, 10 ug/ml [4]: 45.3%
% inhibition, WST-1 cytotoxicity, REH cells, 10 ug/ml [4]: 22.4%
% inhibition, WST-1 cytotoxicity, Ramos cells, 1.1 µg/mL [4]: 89.4%
% inhibition, WST-1 cytotoxicity, Ramos cells, 3.3 µg/mL [4]: 94.9%
MFI [5]: 66
MFI [6]: 515

B5: hLL2-T155C-IgG1 (antibody)
heavy: not shown
light: DIQLTQSPSSLSASVGDRVTMSCKSSQSVLYSANHKNYLAWYQQKPGKAPKLLIYWASTRESGVPSRFSGSGSGTDFTFTISSLQPEDIATYYCHQYLSSWTFGGGTKLEIKRTVAAPSVFIFPPSDEQLKSGTASVVCLLNNFYPREAKVQWKVDNALQSGNSQESVTEQDSKDSTYSLSSTLTLSKADYEKHKVYACEVTHQGLSSPVTKSFNRGEC
notes: Position is EU numbering
MFI [1]: 1250

B6: hLL2-T155C-IgG4p (antibody, name in EU numbering)
heavy: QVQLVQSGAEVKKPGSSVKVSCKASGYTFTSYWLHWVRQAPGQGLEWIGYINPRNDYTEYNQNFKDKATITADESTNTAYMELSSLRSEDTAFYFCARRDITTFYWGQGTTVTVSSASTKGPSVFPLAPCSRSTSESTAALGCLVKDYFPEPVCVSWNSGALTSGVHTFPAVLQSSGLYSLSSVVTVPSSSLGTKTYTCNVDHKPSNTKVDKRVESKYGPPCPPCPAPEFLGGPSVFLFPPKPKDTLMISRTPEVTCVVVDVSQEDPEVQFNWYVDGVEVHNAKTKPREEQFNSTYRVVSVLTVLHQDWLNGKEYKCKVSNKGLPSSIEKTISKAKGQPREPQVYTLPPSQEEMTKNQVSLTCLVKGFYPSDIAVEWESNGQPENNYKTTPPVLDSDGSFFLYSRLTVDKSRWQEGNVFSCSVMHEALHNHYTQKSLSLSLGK
light: DIQLTQSPSSLSASVGDRVTMSCKSSQSVLYSANHKNYLAWYQQKPGKAPKLLIYWASTRESGVPSRFSGSGSGTDFTFTISSLQPEDIATYYCHQYLSSWTFGGGTKLEIKRTVAAPSVFIFPPSDEQLKSGTASVVCLLNNFYPREAKVQWKVDNALQSGNSQESVTEQDSKDSTYSLSSTLTLSKADYEKHKVYACEVTHQGLSSPVTKSFNRGEC
notes: Position is EU numbering
MFI [2]: 79
MFI [3]: 601

B7: hLL2-T169C-IgG1 (antibody)
heavy: not shown
light: DIQLTQSPSSLSASVGDRVTMSCKSSQSVLYSANHKNYLAWYQQKPGKAPKLLIYWASTRESGVPSRFSGSGSGTDFTFTISSLQPEDIATYYCHQYLSSWTFGGGTKLEIKRTVAAPSVFIFPPSDEQLKSGTASVVCLLNNFYPREAKVQWKVDNALQSGNSQESVTEQDSKDSTYSLSSTLTLSKADYEKHKVYACEVTHQGLSSPVTKSFNRGEC
notes: Position is EU numbering
MFI [1]: 1300

B8: hLL2-T155C-IgG1-Tap18Hr1 (antibody)
heavy: not shown
light: DIQLTQSPSSLSASVGDRVTMSCKSSQSVLYSANHKNYLAWYQQKPGKAPKLLIYWASTRESGVPSRFSGSGSGTDFTFTISSLQPEDIATYYCHQYLSSWTFGGGTKLEIKRTVAAPSVFIFPPSDEQLKSGTASVVCLLNNFYPREAKVQWKVDNALQSGNSQESVTEQDSKDSTYSLSSTLTLSKADYEKHKVYACEVTHQGLSSPVTKSFNRGEC
modifications: Tap18Hr1 linker-drug (monomethyl dolastatin 10) on the introduced Cys 155 (EU numbering); site-specific conjugation, DAR 1.58-2.01
notes: also called hLL2-T155C-IgG1 Tap18Hr1 conjugate
% inhibition, WST-1 cytotoxicity, Daudi cells, 1.1 µg/mL [7]: 71%
% inhibition, WST-1 cytotoxicity, Daudi cells, 3.3 µg/mL [7]: 72.6%
% inhibition, WST-1 cytotoxicity, Ramos cells, 1.1 µg/mL [7]: 84.9%
% inhibition, WST-1 cytotoxicity, Ramos cells, 3.3 µg/mL [7]: 88.9%
MFI [8]: 1230

B9: hLL2-S442C-IgG4p-Tap18Hr1 (antibody, name in EU numbering)
heavy: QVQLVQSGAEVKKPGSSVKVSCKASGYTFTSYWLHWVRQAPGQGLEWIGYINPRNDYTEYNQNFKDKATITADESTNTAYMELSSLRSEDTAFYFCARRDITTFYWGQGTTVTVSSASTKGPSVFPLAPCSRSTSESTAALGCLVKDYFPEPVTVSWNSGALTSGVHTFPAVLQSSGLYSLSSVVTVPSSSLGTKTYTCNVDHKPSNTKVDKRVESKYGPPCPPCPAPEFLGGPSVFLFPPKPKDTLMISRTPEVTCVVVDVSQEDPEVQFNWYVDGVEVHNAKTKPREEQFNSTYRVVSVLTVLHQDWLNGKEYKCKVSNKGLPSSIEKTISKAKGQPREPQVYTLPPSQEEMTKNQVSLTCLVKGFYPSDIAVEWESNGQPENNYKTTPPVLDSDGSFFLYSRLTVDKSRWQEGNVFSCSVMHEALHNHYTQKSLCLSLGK
light: DIQLTQSPSSLSASVGDRVTMSCKSSQSVLYSANHKNYLAWYQQKPGKAPKLLIYWASTRESGVPSRFSGSGSGTDFTFTISSLQPEDIATYYCHQYLSSWTFGGGTKLEIKRTVAAPSVFIFPPSDEQLKSGTASVVCLLNNFYPREAKVQWKVDNALQSGNSQESVTEQDSKDSTYSLSSTLTLSKADYEKHKVYACEVTHQGLSSPVTKSFNRGEC
modifications: Tap18Hr1 linker-drug (monomethyl dolastatin 10) on the introduced Cys 442 (EU numbering); site-specific conjugation, DAR 1.58-2.01
notes: also called hLL2-S442C-IgG4p Tap18Hr1 conjugate
% inhibition, WST-1 cytotoxicity, Daudi cells, 1.1 µg/mL [4]: 65.8%
% inhibition, WST-1 cytotoxicity, Daudi cells, 3.3 µg/mL [4]: 70.6%
% inhibition, WST-1 cytotoxicity, NALM-6 cells, 10 ug/ml [4]: 28.5%
% inhibition, WST-1 cytotoxicity, REH cells, 10 ug/ml [4]: 21.3%
% inhibition, WST-1 cytotoxicity, Ramos cells, 1.1 µg/mL [4]: 86.9%
% inhibition, WST-1 cytotoxicity, Ramos cells, 3.3 µg/mL [4]: 88.9%
MFI [5]: 52
MFI [6]: 481

B10: hLL2-S165C-IgG1-Tap18Hr1 (antibody)
heavy: not shown
light: DIQLTQSPSSLSASVGDRVTMSCKSSQSVLYSANHKNYLAWYQQKPGKAPKLLIYWASTRESGVPSRFSGSGSGTDFTFTISSLQPEDIATYYCHQYLSSWTFGGGTKLEIKRTVAAPSVFIFPPSDEQLKSGTASVVCLLNNFYPREAKVQWKVDNALQSGNSQESVTEQDSKDSTYSLSSTLTLSKADYEKHKVYACEVTHQGLSSPVTKSFNRGEC
modifications: Tap18Hr1 linker-drug (monomethyl dolastatin 10) on the introduced Cys 165 (EU numbering); site-specific conjugation, DAR 1.58-2.01
notes: also called hLL2-S165C-IgG1 Tap18Hr1 conjugate
% inhibition, WST-1 cytotoxicity, Daudi cells, 1.1 µg/mL [7]: 60.5%
% inhibition, WST-1 cytotoxicity, Daudi cells, 3.3 µg/mL [7]: 65.1%
% inhibition, WST-1 cytotoxicity, Ramos cells, 1.1 µg/mL [7]: 72.6%
% inhibition, WST-1 cytotoxicity, Ramos cells, 3.3 µg/mL [7]: 79.4%
MFI [8]: 1230

B11: hLL2-S442C-IgG4p (antibody, name in EU numbering)
heavy: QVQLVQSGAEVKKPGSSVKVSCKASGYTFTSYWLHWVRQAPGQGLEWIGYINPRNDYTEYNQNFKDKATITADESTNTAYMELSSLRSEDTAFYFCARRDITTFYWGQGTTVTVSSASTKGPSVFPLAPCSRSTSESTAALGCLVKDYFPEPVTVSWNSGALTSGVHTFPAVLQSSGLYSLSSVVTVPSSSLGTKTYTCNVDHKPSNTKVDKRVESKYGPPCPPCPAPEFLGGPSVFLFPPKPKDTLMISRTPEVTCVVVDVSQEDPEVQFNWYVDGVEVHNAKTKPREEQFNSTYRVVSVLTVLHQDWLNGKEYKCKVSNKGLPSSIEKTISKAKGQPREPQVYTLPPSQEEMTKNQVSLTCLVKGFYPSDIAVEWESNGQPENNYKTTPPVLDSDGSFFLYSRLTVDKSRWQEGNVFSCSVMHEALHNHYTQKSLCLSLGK
light: DIQLTQSPSSLSASVGDRVTMSCKSSQSVLYSANHKNYLAWYQQKPGKAPKLLIYWASTRESGVPSRFSGSGSGTDFTFTISSLQPEDIATYYCHQYLSSWTFGGGTKLEIKRTVAAPSVFIFPPSDEQLKSGTASVVCLLNNFYPREAKVQWKVDNALQSGNSQESVTEQDSKDSTYSLSSTLTLSKADYEKHKVYACEVTHQGLSSPVTKSFNRGEC
notes: Position is EU numbering
MFI [2]: 70
MFI [3]: 681

B12: hLL2-T169C-IgG4p (antibody, name in EU numbering)
heavy: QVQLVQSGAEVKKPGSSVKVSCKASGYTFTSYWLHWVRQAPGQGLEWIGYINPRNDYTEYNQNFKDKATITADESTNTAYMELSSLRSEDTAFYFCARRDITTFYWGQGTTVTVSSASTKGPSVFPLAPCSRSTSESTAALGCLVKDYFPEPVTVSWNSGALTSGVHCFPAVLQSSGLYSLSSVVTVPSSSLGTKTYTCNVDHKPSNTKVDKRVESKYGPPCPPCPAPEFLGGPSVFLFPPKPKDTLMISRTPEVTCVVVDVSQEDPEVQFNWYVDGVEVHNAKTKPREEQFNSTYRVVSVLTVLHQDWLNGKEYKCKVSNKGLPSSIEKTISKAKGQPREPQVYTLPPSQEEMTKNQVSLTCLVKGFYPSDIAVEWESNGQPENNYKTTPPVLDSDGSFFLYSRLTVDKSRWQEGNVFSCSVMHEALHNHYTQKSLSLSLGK
light: DIQLTQSPSSLSASVGDRVTMSCKSSQSVLYSANHKNYLAWYQQKPGKAPKLLIYWASTRESGVPSRFSGSGSGTDFTFTISSLQPEDIATYYCHQYLSSWTFGGGTKLEIKRTVAAPSVFIFPPSDEQLKSGTASVVCLLNNFYPREAKVQWKVDNALQSGNSQESVTEQDSKDSTYSLSSTLTLSKADYEKHKVYACEVTHQGLSSPVTKSFNRGEC
notes: Position is EU numbering
MFI [2]: 74
MFI [3]: 761

B13: hLL2-T169C-IgG1-Tap18Hr1 (antibody)
heavy: not shown
light: DIQLTQSPSSLSASVGDRVTMSCKSSQSVLYSANHKNYLAWYQQKPGKAPKLLIYWASTRESGVPSRFSGSGSGTDFTFTISSLQPEDIATYYCHQYLSSWTFGGGTKLEIKRTVAAPSVFIFPPSDEQLKSGTASVVCLLNNFYPREAKVQWKVDNALQSGNSQESVTEQDSKDSTYSLSSTLTLSKADYEKHKVYACEVTHQGLSSPVTKSFNRGEC
modifications: Tap18Hr1 linker-drug (monomethyl dolastatin 10) on the introduced Cys 169 (EU numbering); site-specific conjugation, DAR 1.58-2.01
notes: also called hLL2-T169C-IgG1 Tap18Hr1 conjugate
% inhibition, WST-1 cytotoxicity, Daudi cells, 1.1 µg/mL [7]: 69.8%
% inhibition, WST-1 cytotoxicity, Daudi cells, 3.3 µg/mL [7]: 73.6%
% inhibition, WST-1 cytotoxicity, Ramos cells, 1.1 µg/mL [7]: 85.7%
% inhibition, WST-1 cytotoxicity, Ramos cells, 3.3 µg/mL [7]: 91.4%
MFI [8]: 1370

B14: hLL2-S165C-IgG1 (antibody)
heavy: not shown
light: DIQLTQSPSSLSASVGDRVTMSCKSSQSVLYSANHKNYLAWYQQKPGKAPKLLIYWASTRESGVPSRFSGSGSGTDFTFTISSLQPEDIATYYCHQYLSSWTFGGGTKLEIKRTVAAPSVFIFPPSDEQLKSGTASVVCLLNNFYPREAKVQWKVDNALQSGNSQESVTEQDSKDSTYSLSSTLTLSKADYEKHKVYACEVTHQGLSSPVTKSFNRGEC
notes: Position is EU numbering
MFI [1]: 1310

B15: hLL2-S442C-IgG1 (antibody)
heavy: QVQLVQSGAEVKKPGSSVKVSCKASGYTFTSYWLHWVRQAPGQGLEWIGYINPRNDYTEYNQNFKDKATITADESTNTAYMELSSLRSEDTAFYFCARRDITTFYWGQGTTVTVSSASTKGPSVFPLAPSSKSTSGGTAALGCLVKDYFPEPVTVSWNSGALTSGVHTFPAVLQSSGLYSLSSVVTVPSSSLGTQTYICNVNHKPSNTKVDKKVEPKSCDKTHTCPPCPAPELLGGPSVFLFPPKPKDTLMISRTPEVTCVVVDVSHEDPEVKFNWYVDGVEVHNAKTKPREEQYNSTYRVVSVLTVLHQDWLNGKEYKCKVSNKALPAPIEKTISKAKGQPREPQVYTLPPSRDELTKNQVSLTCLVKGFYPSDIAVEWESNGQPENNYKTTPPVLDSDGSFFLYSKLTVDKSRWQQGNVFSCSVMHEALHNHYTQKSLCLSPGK
light: DIQLTQSPSSLSASVGDRVTMSCKSSQSVLYSANHKNYLAWYQQKPGKAPKLLIYWASTRESGVPSRFSGSGSGTDFTFTISSLQPEDIATYYCHQYLSSWTFGGGTKLEIKRTVAAPSVFIFPPSDEQLKSGTASVVCLLNNFYPREAKVQWKVDNALQSGNSQESVTEQDSKDSTYSLSSTLTLSKADYEKHKVYACEVTHQGLSSPVTKSFNRGEC
notes: Position is EU numbering
MFI [1]: 1150

— patent US20160015831A1 (BIOALLIANCE C V, published 2016)
